Tests used:
[1] = system: HUVECs; assay: Clonogenic survival of endothelial cells after irradiation; type: cell-based, human; conditions: MDA-7 protein 10 ng/ml; angiostatin, endostatin 100 ng/ml; 12 h before irradiation
Procedure: Twelve hours after seeding HUVECs in 4-well plates (Nunc, Roskilde, Denmark), medium was replaced with serum/growth factor-free medium. After serum/growth factor starvation for 12 hours, cells were treated with complete medium containing either MDA-7 protein (10 ng/ml) (removed from cultures of 293 cells), angiostatin (100 ng/ml), or endostatin (100 ng/ml). Twelve hours later, cells were irradiated with ^137CS unit (3.4 Gy/min) at room temperature, trypsinized and counted. Known numbers of cells were replated in 60 mm culture dishes and incubated to allow macroscopic colony development. Colonies were counted after 14 days, and the percent plating efficiency and surviving fractions following given treatments were calculated based on the survival of non-irradiated cells.

[2] = system: bFGF-induced angiogenesis; assay: In vivo Matrigel plug angiogenesis assay; design: species or system athymic nude mice; conditions: 12.5 ng in Matrigel with 60 ng bFGF; 10 days
Procedure: To determine the antiangiogenic activity of sMDA-7, an in vivo angiogenesis assay was performed. Briefly, sMDA-7 (12.5 ng) and bFGF (60 ng) was mixed with 500 μl of Matrigel (Beckton Dickinson, Bedford, Mass.) on ice and injected subcutaneously into athymic nude mice. Animals receiving Matrigel containing only bFGF (60 ng) served as positive controls and animals receiving Matrigel containing no growth factor served as negative controls. Each group comprised of five animals and the experiments were performed twice. Animals were sacrificed 10 days after injection. The Matrigel plugs were recovered, photographed, and subjected to hemoglobin analysis as previously described (Pessaniti et al., 1992).

[3] = system: HUVEC and HMVEC; assay: Endothelial cell proliferation assay (trypan blue); type: cell-based, human; conditions: 1, 5, 10, 50 ng/ml; 1 ng/ml bFGF; vs PBS
Procedure: To test the effect of sMDA-7 protein on cell proliferation, endothelial cells (HUVEC, HMVEC) were serum-starved overnight. The next day, cells were seeded in 2-well chamber slides (1−10^4/well). The cells were allowed to adhere and spread for 4-6 h, and fresh medium containing 1 ng/ml of bFGF as a proangiogenic stimulator, and various concentrations of sMDA-7/IL-24 (1, 5, 10, and 50 ng/ml) was added. Cells treated with PBS served as controls. Cells were then harvested 3 days after treatment and cell proliferation determined by trypan blue exclusion assay method as previously described (Saeki et aL, 2000). The effect of sMDA-7 on lung tumor cell (H1299, and A549) proliferation was also evaluated. The experimental conditions were the same as described above for endothelial cells except that tumor cells were not stimulated with bFGF.

[4] = system: iNOS; assay: iNOS expression in melanoma cell lines (immunostaining of cytospins); type: cell-based, human; design: dose or concentration left out as unconfirmed; conditions: A375; 48 h
Procedure: Replication-deficient human type 5 adenovirus (Ad5) carrying the mda-7 gene was obtained from Introgen Therapeutics (Houston, Tex.). The mda-7 gene was linked to an internal CMV-EE promoter and followed by SV40 polyadenylation. Ad-Luc and Ad-CMV polyadenylation (luciferase and empty vector, respectively), were used as control viruses. Cells were plated 1 day before infection. […] Experimental conditions were optimized to achieve MDA-7 protein expression by >70% of cells, based on results of immunohistochemical staining.
[…] At baseline, these melanoma cell lines express high levels of iNOS and are negative for MDA-7. Forty-eight h after vector treatment, the cells were collected, and cytospins were prepared to analyze iNOS expression. […] It has been shown previously that MDA-7 is secreted by Ad-mda7-infected melanoma cells (Lebedova et al., 2002; Mhashilkar et al., 2001).

[5] = system: MiaPaCa2 pancreatic cancer cells; assay: MDA-7 protein on pancreatic cancer cells: STAT3 activation, killing; type: cell-based, human
Procedure: MiaPaCa2 pancreatic cancer cells were treated with purified recombinant human MDA-7 protein, as described in Example 11. By immunofluorescence, substantial activation (phosphorylation) of STAT3 and concomitant movement of p-STAT3 to the nucleus were observed. The STAT3 activation was blocked in the presence of anti-MDA-7 antibodies.

[6] = system: HUVEC; assay: IP-10 and IFN-γ production by ELISA; type: cell-based, human; conditions: 10 ng/ml; 48 h period
Procedure: Furthermore, IFN-γ is a potent inducer of IP-10 (Majumder et al., 1998). […] Studies were conducted to determine whether the antiangiogenic activity of sMDA-7 was mediated by IFN-γ or IP-10. HUVEC were seeded in 6-well plates (1×10^5/well) and treated with sMDA-7 (10 ng/ml). Cell culture supernatant was collected at 6 h, 24 h, and 48 h after treatment, centrifuged at 1200 rpm, and analyzed for IP-10 and IFN-γ protein production using commercially available ELISA kits. Assays were performed as recommended by the manufacturer (R&D systems, Minneapolis, Minn.). […] Cells treated with PBS served as negative controls in these experiments. Samples were analyzed in quadruplicate, and data represented as the average value for each concentration of sMDA-7 tested.

[7] = system: WM35; assay: TUNEL apoptosis assay; type: cell-based, human; conditions: 40 ng/ml, 3 days
Procedure: (§1) The mechanism of the anti-tumor activity of rhMDA-7 was also evaluated. Melanoma cells were treated with rhMDA-7 protein and assessed for apoptosis using the TUNEL assay. […] These studies were performed with purified rhMDA-7 protein. The melanoma cells have also been treated with supernatant from 293-mda7 cells or control 293 cells. Only the 293-mda7 supernatant causes cell killing.

[8] = system: SK-Mel-1; assay: TUNEL apoptosis assay; type: cell-based, human; conditions: 40 ng/ml, 3 days
Procedure: as §1

[9] = system: WM793; assay: TUNEL apoptosis assay; type: cell-based, human; conditions: 40 ng/ml, 3 days
Procedure: as §1

[10] = system: A375.S2; assay: TUNEL apoptosis assay; type: cell-based, human; conditions: 40 ng/ml, 3 days
Procedure: as §1

[11] = system: MeWo; assay: TUNEL apoptosis assay; type: cell-based, human; conditions: 40 ng/ml, 3 days
Procedure: as §1

[12] = system: A375; assay: TUNEL apoptosis assay; type: cell-based, human; conditions: 40 ng/ml, 3 days
Procedure: as §1

B1: sMDA-7: soluble secreted human MDA-7 (IL-24) protein purified from stably transfected 293-mda-7 cells (protein)
chain: AQGQEFHFGPCQVKGVVPQKLWEAFWAVKDTMQAQDNITSARLLQQEVLQNVSDAESCYLVHTLLEFYLKTVFKNYHNRTVEVRTLKSFSTLANNFVLIVSQLQPSQENEMFSIRDSAHRRFLLFRRAFKQLDVEAALTKALGEVDILLTWMQKFYKL
radiosensitization of HUVECs [1]: sensitized
bFGF-induced angiogenesis (hemoglobin) [2]: significantly inhibited
antiproliferative activity [3]: no significant antiproliferative activity
iNOS expression [4]: clear down-regulation
killing of MiaPaCa2 cells [5]: dose-dependent killing
time to evident STAT3 activation [5]: ≤ 30 min
induced secretion of IFN-γ [6]: < 30 pg/mL
induced secretion of IP-10 [6]: < 32 pg/mL
% TUNEL Positive [7]: 17.88%
% TUNEL Positive [8]: 5.0%
% TUNEL Positive [9]: 9.88%
% TUNEL Positive [10]: 12.3%
% TUNEL Positive [11]: 12.11%
% TUNEL Positive [12]: 18.78%
